Blank lines part the entries; values can stand above or below the molecule they belong to.
Columns and labels:
[1] = target: T1, PpATase (multicomponent acyltransferase, PhlA/PhlB/PhlC) (Pseudomonas protegens, UniProt Q4K420); assay: X-ray crystal structure ([…] Å) of crystal soaked with MAPG; assay type: binding; details: PG bound at PhlC active site (4 of 8 PhlC copies) next to acetylated Cys88; formed in the crystal from soaked MAPG
T1 construct: codon-optimized phlA, phlB, phlC ORFs co-expressed in E. coli; size-exclusion purified for crystals, cell-free extract for activity; heterododecamer Phl(A2C2)2B4; with 2,4-diacetylphloroglucinol biosynthesis protein PhlA; 2,4-diacetylphloroglucinol biosynthesis protein PhlB

[2] = target: PhlA subunit of the acyltransferase from Pseudomonas protegens DSM 19095 (PpATase) (Pseudomonas protegens DSM 19095); assay: crystal structure; PpATase complex (PhlA, PhlB, PhlC co-expressed, purified by SEC); hexagonal crystal form (P6_(1)22, untreated, 2.8 Å) and orthorhombic crystal form (P2_(1)2_(1)2_(1), soaked with MAPG, 3.4 Å); crystallised at 289 K; protein-protein interactions in the crystal analysed with the EBI-Pisa server
[3] = target: PhlC subunit of the acyltransferase from Pseudomonas protegens DSM 19095 (PpATase) (Pseudomonas protegens DSM 19095); assay: as above

Molecule: Oc1cc(O)cc(O)c1 [PG, benzene‐1,3,5‐triol]
X-ray crystal structure (3.4 Å) of crystal soaked with MAPG [1]: This density was compatible with an acetylated Cys88 residue and with a (deacetylated) PG molecule

stoichiometry N [2]: 2
Molecule: PhlA subunit of the acyltransferase from Pseudomonas protegens DSM 19095 (PpATase) (natural protein)

stoichiometry N [3]: 2
Molecule: PhlC subunit of the acyltransferase from Pseudomonas protegens DSM 19095 (PpATase) (natural protein)

From publication PMC6392133, “Structure and Catalytic Mechanism of a Bacterial Friedel–Crafts Acylase” (Chembiochem, 2018)
